Molecular target: IL10 receptor (IL10R) (human) (UniProt Q13651)
Assay: cell-based or functional assay

Sequence of IL10 receptor (IL10R) (human) (Q13651 22-578, chain 1 of 2): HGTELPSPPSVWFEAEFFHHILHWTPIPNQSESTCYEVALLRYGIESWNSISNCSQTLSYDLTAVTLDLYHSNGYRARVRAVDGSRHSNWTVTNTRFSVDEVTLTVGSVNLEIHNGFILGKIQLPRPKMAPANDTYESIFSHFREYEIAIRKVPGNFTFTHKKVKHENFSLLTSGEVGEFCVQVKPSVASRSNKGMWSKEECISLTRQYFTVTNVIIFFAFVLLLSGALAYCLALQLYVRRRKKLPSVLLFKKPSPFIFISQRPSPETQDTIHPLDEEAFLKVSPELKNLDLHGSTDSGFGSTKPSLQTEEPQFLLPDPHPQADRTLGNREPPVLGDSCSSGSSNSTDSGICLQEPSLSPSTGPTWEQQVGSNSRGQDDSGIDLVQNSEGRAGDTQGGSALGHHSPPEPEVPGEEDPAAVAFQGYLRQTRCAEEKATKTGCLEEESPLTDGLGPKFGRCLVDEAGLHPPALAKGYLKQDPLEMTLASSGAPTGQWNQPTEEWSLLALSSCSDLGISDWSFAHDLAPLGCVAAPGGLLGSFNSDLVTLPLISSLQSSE
Sequence of IL10 receptor (IL10R) (human) (Q08334 20-325, chain 2 of 2, further chain): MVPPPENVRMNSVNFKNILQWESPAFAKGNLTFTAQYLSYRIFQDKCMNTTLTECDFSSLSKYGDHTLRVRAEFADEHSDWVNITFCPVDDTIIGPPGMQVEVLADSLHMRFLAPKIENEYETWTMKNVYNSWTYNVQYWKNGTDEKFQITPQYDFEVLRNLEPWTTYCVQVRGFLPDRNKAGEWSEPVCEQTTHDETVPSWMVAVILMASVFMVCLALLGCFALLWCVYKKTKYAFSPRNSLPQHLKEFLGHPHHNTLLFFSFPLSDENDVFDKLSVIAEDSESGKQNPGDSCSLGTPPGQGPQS

Question: Which pSTAT3 MFI, B cells, 0.0001 nM (unstimulated 1193.5) does the source give for “wild-type human IL10 (wt hIL10) (from UniProt P22301 19-178) (ligand)” here?
Answer: 1160 MFI

Question: And the pSTAT3 MFI, B cells, 0.001 nM (unstimulated 1193.5)?
Answer: 1140 MFI

Question: And the pSTAT3 MFI, B cells, 0.01 nM (unstimulated 1193.5)?
Answer: 1220 MFI

Question: What about the pSTAT3 MFI, B cells, 0.1 nM (unstimulated 1193.5) of the same substance?
Answer: 1780 MFI

Question: And the pSTAT3 MFI, B cells, 1 nM (unstimulated 1193.5)?
Answer: 3950 MFI

Question: And the pSTAT3 MFI, B cells, 10 nM (unstimulated 1193.5)?
Answer: 3930 MFI

Question: What about the pSTAT3 MFI, B cells, 100 nM (unstimulated 1045) of the same substance?
Answer: 2400 MFI

Question: What about the pSTAT3 MFI, B cells, 100 nM (unstimulated 1193.5) of the same substance?
Answer: 2620 MFI

Question: What about the pSTAT3 MFI, CD4+ T cells, 100 nM (unstimulated 1778) of the same substance?
Answer: 9660 MFI

Question: And the pSTAT3 MFI, CD4 T cells, 0.0001 nM (unstimulated 1887)?
Answer: 1970 MFI

Question: What about the pSTAT3 MFI, CD4 T cells, 0.001 nM (unstimulated 1887) of the same substance?
Answer: 1880 MFI

Question: What about the pSTAT3 MFI, CD4 T cells, 0.01 nM (unstimulated 1887) of the same substance?
Answer: 2220 MFI

Question: And the pSTAT3 MFI, CD4 T cells, 0.1 nM (unstimulated 1887)?
Answer: 5170 MFI

Question: And the pSTAT3 MFI, CD4 T cells, 1 nM (unstimulated 1887)?
Answer: 10700 MFI

Question: And the pSTAT3 MFI, CD4 T cells, 10 nM (unstimulated 1887)?
Answer: 10800 MFI

Question: And the pSTAT3 MFI, CD4 T cells, 100 nM (unstimulated 1887)?
Answer: 9560 MFI

Question: What about the pSTAT3 MFI, CD8+ T cells, 100 nM (unstimulated 1288) of the same substance?
Answer: 8810 MFI

Question: What about the pSTAT3 MFI, CD8 T cells, 0.0001 nM (unstimulated 1446) of the same substance?
Answer: 1700 MFI

Question: What about the pSTAT3 MFI, CD8 T cells, 0.001 nM (unstimulated 1446) of the same substance?
Answer: 1430 MFI

Question: And the pSTAT3 MFI, CD8 T cells, 0.01 nM (unstimulated 1446)?
Answer: 1720 MFI

Question: What about the pSTAT3 MFI, CD8 T cells, 0.1 nM (unstimulated 1446) of the same substance?
Answer: 4300 MFI

Question: What about the pSTAT3 MFI, CD8 T cells, 1 nM (unstimulated 1446) of the same substance?
Answer: 8890 MFI

Question: And the pSTAT3 MFI, CD8 T cells, 10 nM (unstimulated 1446)?
Answer: 9890 MFI

Question: What about the pSTAT3 MFI, CD8 T cells, 100 nM (unstimulated 1446) of the same substance?
Answer: 9010 MFI

Question: What about the pSTAT3 MFI, Monocytes, 0.0001 nM (unstimulated 2116) of the same substance?
Answer: 2050 MFI

Question: And the pSTAT3 MFI, Monocytes, 0.001 nM (unstimulated 2116)?
Answer: 2140 MFI

Question: What about the pSTAT3 MFI, Monocytes, 0.01 nM (unstimulated 2116) of the same substance?
Answer: 2840 MFI

Question: And the pSTAT3 MFI, Monocytes, 0.1 nM (unstimulated 2116)?
Answer: 9550 MFI

Question: And the pSTAT3 MFI, Monocytes, 1 nM (unstimulated 2116)?
Answer: 28900 MFI

Question: What about the pSTAT3 MFI, Monocytes, 10 nM (unstimulated 2116) of the same substance?
Answer: 30900 MFI

Question: And the pSTAT3 MFI, Monocytes, 100 nM (unstimulated 1787)?
Answer: 27100 MFI

Question: What about the pSTAT3 MFI, Monocytes, 100 nM (unstimulated 2116) of the same substance?
Answer: 26600 MFI

Question: And the pSTAT3 MFI, NK cells, 0.0001 nM (unstimulated 1315)?
Answer: 1310 MFI

Question: What about the pSTAT3 MFI, NK cells, 0.001 nM (unstimulated 1315) of the same substance?
Answer: 1270 MFI

Question: What about the pSTAT3 MFI, NK cells, 0.01 nM (unstimulated 1315) of the same substance?
Answer: 1380 MFI

Question: What about the pSTAT3 MFI, NK cells, 0.1 nM (unstimulated 1315) of the same substance?
Answer: 2280 MFI

Question: And the pSTAT3 MFI, NK cells, 1 nM (unstimulated 1315)?
Answer: 4620 MFI

Question: And the pSTAT3 MFI, NK cells, 10 nM (unstimulated 1315)?
Answer: 5700 MFI

Question: And the pSTAT3 MFI, NK cells, 100 nM (unstimulated 1149)?
Answer: 4380 MFI

Question: What about the pSTAT3 MFI, NK cells, 100 nM (unstimulated 1315) of the same substance?
Answer: 4790 MFI

Source: patent publication US20250163162A1
